Consider 41 sequences from the nanobody polyreactivity screen of Harvey et al. (2022).

This data set can be described thus: yeast display, Sf9 membrane polyspecificity reagent, FACS + sequencing; frameworks hold sequencing errors. Summed up:
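Genes from sorted yeast were amplified by colony PCR, read by MiSeq 2 × 250 sequencing and filtered on CDR length. These cells carried a synthetic nanobody library in Saccharomyces cerevisiae BJ5465 and were sorted by FACS into low and high (top ~1%) gates on anti-HA and streptavidin fluorescence. Polyreactivity is labelled according to the gate of origin.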
As for “QVQIVDSGGGLVQAGGSLRLSCAASGSTFRAYAMGWYRQSPGKEWELVAAISSSGGSTYYADSVKGRFTISRDNAKITVYLQMNSLKPEDTAVYYFAAAFLAAGRNVRYYWGQGTQVTVSS”, the “polyreactivity (PSR sort gate)” value is given as “high polyreactivity”.

For the sequence “QVQIVESAAGLVQAGGSLRLSCAASGLTFTTYSKGWYRQAPGKERELVAAISRRGSRTYYADSVKGRFTISRDNSKNTVYLQMNSLKPEDTAVYYCNALTGSFKTYSFDYWGQGTQVTVSS”, the “polyreactivity (PSR sort gate)” value was “high polyreactivity”.

With “QVQIVESCGGLVQAGGSLRLICAASGFIFTHYAMGWYRQAPGKERELVAAISSGGSTYYADSVKGRFTISRDNAKYTVYLQMNSLKPEDTAVYYCAAVWPWRYYATGENYWGQGTQVTVSS”, the “polyreactivity (PSR sort gate)” value is listed as “high polyreactivity”.

With “QVQIVESGGCLVQAGGSLRLSCAASGRIIVRNAMGWYRQARGTERELVADITNGGSTNYADSVKGRFTISRDNAKNTVFLEMNSLKPEDTAVDFCAADTLGVYDGDYWGQGTQVTVSS”, the “polyreactivity (PSR sort gate)” value was “low polyreactivity”.

“QVQIVESGGGLFQAGGSLRISCAASGFTFPNYAMGWYRQAPGKERELVAAITSGGGRSNYADCVKGRFTISRDNAKKTFYLEMNSLKPEDSAVYYCAKTRVRGSEFGYWGQGTQVTVSS”: the “polyreactivity (PSR sort gate)” value is recorded as “low polyreactivity”.

As to “QVQIVESGGGLFQAGGSLRLSCAASGGIFREYAMGWSRQAPGKERELVAVISDSGAGTYYADSVKGRFTISRDNAKNTVSLQMNSLKPEDTEVYYCAQGTARLDFPDMDPWGQGTQVTVSS”, the “polyreactivity (PSR sort gate)” value is given as “low polyreactivity”.

In the case of “QVQIVESGGGLLQAGGSLRLSCAASGRIFPANAMGWYREAPGKERELGAAIDYDGGSTYYADSVKGRFTISRDNAKNTVYLQRNSLKPVDNGVFYCDKSLTFYSWRDYGYWGQGTQVTVSS”, the “polyreactivity (PSR sort gate)” value was “high polyreactivity”.

As for “QVQIVESGGGLVEAGGSLRLTCAASGSIFGGNAMGWYRQAPGKERELVAAITSTVSTNYADSVKGRFTISRDNAKNTVYLQMNSLKPEDNAVYYCATDTSNVEGDYWGQGTQVTVSS”, the “polyreactivity (PSR sort gate)” value is “low polyreactivity”.

Consider “QVQIVESGGGLVQAAGSLRLSCAASGSTLAPYAMGWYRQAPGKERELVASINWGGTTTYYADSVKGRFTNSRDNAKNKVYLQMNSLKPEDTAVYYCAALGLSWGRSGYYYEYYYWGQGTQVTVSS”, for which the “polyreactivity (PSR sort gate)” value is on record as “high polyreactivity”.

With “QVQIVESGGGLVQAGCSLRLSCAASGNIFRGYTMGWYRQAPGKEWELVATITWNGVSTFYADSVKGRFTISRDNAKNTGYLQMNSLKPEDTAVYYCAAYYPSHDYSGFGSDTYEYWGQGTQVTVSS”, the “polyreactivity (PSR sort gate)” value is listed as “low polyreactivity”.

Consider “QVQIVESGGGLVQAGGILRLSCAASGSTFSFNAMGWYRQAPGKERELVAAITGGDGTIYADSVKGRFTISRDNAKNTVYLQMNSLKPEVTAVYYCAADQWGSTEDYWFTYGYWGQGTQVTVSS”, for which the “polyreactivity (PSR sort gate)” value is on record as “low polyreactivity”.

On to “QVQIVESGGGLVQAGGSLRISCAASGSIFVQYAMGLYRQAPGKERELVAAITTGGGTNYADSVKGRFKISRDNAKNTVYLQMNSLKPEDTAVYSCAADSRWLVRLYDYWGHGTQVTVSS”, for which the “polyreactivity (PSR sort gate)” value is on record as “low polyreactivity”.

“QVQIVESGGGLVQAGGSLRISCAASGSTFPRNVMGWYRQAPGKERELVAAITSSGGSTYYADSVKGRFTISRDNAQHTVYLQMNSLKPADTAVYYCNAVSYYLGDDYWGQGTQVTVSS”: the “polyreactivity (PSR sort gate)” value was “high polyreactivity”.

As to “QVQIVESGGGLVQAGGSLRLSCAASGFIFYFYAMGWYRQAPGKERELVATITRRDDSTYYADSVKGRFTISRDNAKNTVYLQMNSLKPEDTAVYYCNADFWLLSEYDYWGQGTQVTVSS”, the “polyreactivity (PSR sort gate)” value is listed as “low polyreactivity”.

“QVQIVESGGGLVQAGGSLRLSCAASGFTFLWYAMGWYRQAPGKERELVAAINSGGRTNYADSVKGRFTISRDNAKNTVYLQMNSLKPEDTAVYYCAKRRPLYAHPDDYWGQGTQVTVSS”: the “polyreactivity (PSR sort gate)” value is given as “low polyreactivity”.

For the sequence “QVQIVESGGGLVQAGGSLRLSCAASGFTFRVYAMGWYRPAPGKERELVAAISARGGSTYYADSVKVRFTISRDNAKNTVDLQMNSLKPEDTAVYYCAAEPSGKRSKFYYWGQGTQETVSS”, the “polyreactivity (PSR sort gate)” value is listed as “high polyreactivity”.

As to “QVQIVESGGGLVQAGGSLRLSCAASGGILYYYVMGWYRQAPGKERELVADISRGGSTNYADSVKGRFTISRDNAKNTVYFQMNSLKPEDTAVYYCADQDGLKQYTFDYWGQGTQVSVSS”, the “polyreactivity (PSR sort gate)” value is reported as “low polyreactivity”.

Take “QVQIVESGGGLVQAGGSLRLSCAASGGIYTRYVMGWYRQAPGTERELVAAISSGGSTYYADSVKGRFTISRDNAKNTDYFQMNSLKPEDTAVYYCAAGYYIYLIRKFIYDYWGQGSQVTVSS”: the “polyreactivity (PSR sort gate)” value was “high polyreactivity”.

As for “QVQIVESGGGLVQAGGSLRLSCAASGGTFWANAMGWYRQAPGKERELVAAITSGGSTYADSVKGRFTISRDNAKNTVYLQMNSLKPDDTAVYYCNARRYRYRPYLSGYNYWGQGTQVTVSS”, the “polyreactivity (PSR sort gate)” value is recorded as “high polyreactivity”.

On to “QVQIVESGGGLVQAGGSLRLSCAASGGTFYVNDMGWYRQAPGKERELVATITYSGTSTYYADSVKGRFTISRDNAKNTVYLHMNSLKPEDTAVYYCATDVLLYFEPVNLEYWGQGTQVTVSS”, for which the “polyreactivity (PSR sort gate)” value was “low polyreactivity”.

On to “QVQIVESGGGLVQAGGSLRLSCAASGIIFDYYAMGWYIQAPGKERELVATITSGGSTNYADSVKGRFTISRDNAKNTVYLQMNSLKPEDSAVYYCAARTYWFPDIYPGLGMDYWGHGTQVTVSS”, for which the “polyreactivity (PSR sort gate)” value was “low polyreactivity”.

Take “QVQIVESGGGLVQAGGSLRLSCAASGIIFPVYVMGWYRQAPGKERELVAAISKRGGSTYYADSVKGRFTISRDNAKNTVYLQMNSLKPEDTAVYYCAADRSRHSFYWEYDYWGQGTQVTVSS”: the “polyreactivity (PSR sort gate)” value is “high polyreactivity”.

In the case of “QVQIVESGGGLVQAGGSLRLSCAASGITFDTYVMGWYRQAPGKERELVATISESVGNTYYADSVKGRFTISRDNEKNTVYLQMNILKPEDTAVDYCYTSRYYTIYTYYYWGQGTQVTVSS”, the “polyreactivity (PSR sort gate)” value is reported as “low polyreactivity”.

For the sequence “QVQIVESGGGLVQAGGSLRLSCAASGITFVPNAIGLYRQAPGKERELFDAITNGDSTNYADSVKGRFTISRDNAKNTVYLQMNSLKPEDTAVYYCAADSCAQRPNQGRVSLHYYWGQVTQVTVSS”, the “polyreactivity (PSR sort gate)” value was “low polyreactivity”.

Take “QVQIVESGGGLVQAGGSLRLSCAASGLTFIRYAMGWYRQAPGKERELVAAISTSGGRTYYADSVKGRFTISRDNAKNTVYLQMNSLKPEDTAVYYCAKYQSTGYTQSSYDYRGQGTQVTVSS”: the “polyreactivity (PSR sort gate)” value is given as “high polyreactivity”.

For the sequence “QVQIVESGGGLVQAGGSLRLSCAASGRIFDLNAMGWYRQAPGKEREFVASITWSVGSTYYADSVKGRFTISRDNAKNTVYLQMNSLKPEVTAVYYCAARSLSWTPYYYWGQGTQVTVSS”, the “polyreactivity (PSR sort gate)” value is listed as “high polyreactivity”.

Take “QVQIVESGGGLVQAGGSLRLSCAASGRIFVGYAMGWYRQAPGKERELFAAISRDGDNTFYADSVKGRFTISRDNAKNTVYLQMNSLKPEDTAVYYCAVDFCVWYGSAYAYDYYWGQGTQVTVSS”: the “polyreactivity (PSR sort gate)” value is recorded as “low polyreactivity”.

Regarding “QVQIVESGGGLVQAGGSLRLSCAASGRISVFNAMGWYRQAPGKERELVAAITSGGSTNYADSVKGRFTISRDNAKNTVYLQMNSLKPEDTAVYYCNADVYHSHEPHYDYWGQGTQVTVSS”, the “polyreactivity (PSR sort gate)” value was “low polyreactivity”.

As to “QVQIVESGGGLVQAGGSLRLSCAASGRTFDHNAMGWYRQAPGKERELVATISGSGGSTNYADSVKGRFTISRDNAKNTVDLQMNSLKPEDTAVYYCATPRVWYYNQYSELDYWGQGTQVTVSS”, the “polyreactivity (PSR sort gate)” value was “high polyreactivity”.

As to “QVQIVESGGGLVQAGGSLRLSCAASGRTFRVNAMGWYRQAPGKERELVAAISSSGGSTYYADSVKGRFTISRDNAKNTVYLQMNSLKPEDTAVYYCAAVVGGYRYDYLGQGTQVTVSS”, the “polyreactivity (PSR sort gate)” value is “high polyreactivity”.

With “QVQIVESGGGLVQAGGSLRLSCAASGRTFVTYAMGWYRQAPGKERELVAAISRRGGSTYYADSVKGRFTISRDNAKNTVYLQMNSLKPEDTAVYYCAADPTYRTKFGYWGQGTQVTVSS”, the “polyreactivity (PSR sort gate)” value is “high polyreactivity”.

For the sequence “QVQIVESGGGLVQAGGSLRLSCAASGSIFIFYAMGWYRQAPGKERELVADITSDGASTYYADSVKGRFTISRDNAKNTVYLQMNSLKPEDTAVYYCAADYIDSSAYDYWGQGTQVTVSS”, the “polyreactivity (PSR sort gate)” value is “low polyreactivity”.

On to “QVQIVESGGGLVQAGGSLRLSCAASGSIFVQNAMGWYRQAPGKERELVAVINSGDSTNYADSVKGRFTISRDNAKNTVYLQMNSLKPEDTAVYYCAVDDVSYYYLRAYNYELSWYGSGLDYWGQGTQVTVSS”, for which the “polyreactivity (PSR sort gate)” value was “low polyreactivity”.

Take “QVQIVESGGGLVQAGGSLRLSCAASGSILLYYPIGWYRQAPAKEREWVARITGSGSRTYYADSVKGRFTISRDNAKNTVFVQMHSVKPEDNAVYYCAADFSGHGWESVVGYGYWGQGTQVTVSS”: the “polyreactivity (PSR sort gate)” value was “low polyreactivity”.

On to “QVQIVESGGGLVQAGGSLRLSCAASGSTFFRYAMGWYRQAPGKERELVAAISYSGDSTYYADSVKGRFTISRDNAKNTVYLQMNSLKPEDTAVFYCNAVYFRYRYNYWGQGTQVTVSS”, for which the “polyreactivity (PSR sort gate)” value was “high polyreactivity”.

Consider “QVQIVESGGGLVQAGGSLRLSCAASGSTFPTNAMGWYRQAPGKERELVAAITSTGSTYADSVKGRFTISRDNAKNTVYLQMNSLKPEDTAVYYCAADTQWTTPYDYWGQGTQVTVSS”, for which the “polyreactivity (PSR sort gate)” value is given as “low polyreactivity”.

“QVQIVESGGGLVQAGGSLRLSCAASGSTFQYYAMGWYRQAPGKERELVAGITWRDGNTYYADSVKGRFTISRDNAKNSVYLQMNSLKPEDTAVYYCAARRYFVIYFPYDYWGQGTQVTVSS”: the “polyreactivity (PSR sort gate)” value is “low polyreactivity”.

For the sequence “QVQIVESGGGLVQAGGSLRLSCAASGSTFTIYAMGRYRQAPGKERELVAAISSGGSTYYADSVKGRFTISRDNAKNTVYLQMNSLKPEDTAVYYCAARVYLSGYGYNYWGQGTQVTVSS”, the “polyreactivity (PSR sort gate)” value is listed as “high polyreactivity”.

For the sequence “QVQIVESGGGLVQAGGSLRLSCAASGSTSYRYAMGWYRQATGQERALVAAIPWISDSTYYADSVKGRFTISRDNAKNTVYLQMNSLKPEDTAVYYCNTDPLVTSVTFNYWGQGTQVTVSS”, the “polyreactivity (PSR sort gate)” value is “low polyreactivity”.

For “QVQIVESGGGLVQAGGSLRLSCAASGYTFVENAMGWYRQAPGKERELVAAISNGTITYYADSVKGRFTISRDNAKNTVYLQMNSLKPEDTAVYYCADYEYWGQGTQVTVSS”, the “polyreactivity (PSR sort gate)” value was “low polyreactivity”.

As for “QVQIVESGGGLVQAGGSLRLSCADSGSTRIYAMGWYRQAPGKERELVAAISWSGGRTYYADSVKGRFTISRDNAKNTVYLQMNSLKPEDTAVYYCAAKGSGRDYWGQGTQVTVSS”, the “polyreactivity (PSR sort gate)” value was “high polyreactivity”.
